The text below walks through data of patent publication US20140087995A1 (published 2014).

Numbered stars: 1 amine (or outer) side, 2 acyl side, 3 side chain; on linkers, the order of the positions; unused ones are H or OH. Bridge positions count the residues as written; N and C are the ends. Side chains are listed from the residue outwards. Ends that are not written are not given here. * marks the point of attachment. C20 diacid = O=C(O)CCCCCCCCCCCCCCCCCCC(=O)*; γGlu = O=C(O)[C@H](CCC(=O)[*:2])N[*:1]

For test [1], the target named is T1, human amylin receptor (amylin 3(a) receptor: human calcitonin receptor coexpressed with RAMP-3) (human, UniProt P30988 25-474; O60896 24-148).
T1 sequence (looked up) 1: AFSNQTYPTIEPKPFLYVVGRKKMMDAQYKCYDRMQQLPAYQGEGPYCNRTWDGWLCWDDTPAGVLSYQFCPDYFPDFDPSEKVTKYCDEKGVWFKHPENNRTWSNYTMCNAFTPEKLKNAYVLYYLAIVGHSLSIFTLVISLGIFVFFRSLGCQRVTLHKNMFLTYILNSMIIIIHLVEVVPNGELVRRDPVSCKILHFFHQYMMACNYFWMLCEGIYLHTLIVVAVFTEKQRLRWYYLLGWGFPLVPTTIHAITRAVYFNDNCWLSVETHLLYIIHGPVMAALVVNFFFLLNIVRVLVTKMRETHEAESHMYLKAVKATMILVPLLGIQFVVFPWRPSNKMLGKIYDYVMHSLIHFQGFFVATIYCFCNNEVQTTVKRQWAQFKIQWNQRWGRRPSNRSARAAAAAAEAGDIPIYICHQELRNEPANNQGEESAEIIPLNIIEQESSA
T1 sequence (looked up) 2: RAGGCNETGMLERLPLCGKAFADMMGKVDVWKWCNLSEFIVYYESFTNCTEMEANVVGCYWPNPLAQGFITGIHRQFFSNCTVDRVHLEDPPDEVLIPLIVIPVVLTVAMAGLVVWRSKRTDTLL
Put plainly: cell-based or functional assay.

Test [2] addresses T2, human calcitonin receptor (human, UniProt P30988 25-474).
T2 sequence (looked up): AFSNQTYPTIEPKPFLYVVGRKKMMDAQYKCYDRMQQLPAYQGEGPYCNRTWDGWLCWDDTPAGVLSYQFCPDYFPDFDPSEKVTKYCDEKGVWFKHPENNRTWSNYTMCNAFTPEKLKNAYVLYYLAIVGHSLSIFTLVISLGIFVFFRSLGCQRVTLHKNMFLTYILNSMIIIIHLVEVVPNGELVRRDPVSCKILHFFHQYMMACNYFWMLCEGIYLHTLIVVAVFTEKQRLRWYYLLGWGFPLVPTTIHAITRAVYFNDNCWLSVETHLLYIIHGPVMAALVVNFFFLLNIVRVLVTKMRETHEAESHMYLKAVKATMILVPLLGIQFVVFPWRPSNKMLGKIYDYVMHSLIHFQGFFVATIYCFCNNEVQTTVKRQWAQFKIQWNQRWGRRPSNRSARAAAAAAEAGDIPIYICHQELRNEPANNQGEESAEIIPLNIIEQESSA
Kind of test: cell-based or functional assay.

B1: N^ε1-[(4S)-4-carboxy-4-(19-carboxynonadecanoylamino)butanoyl]-[Asp14,Arg17,Pro21,Pro27,Pro34,Arg35]-h-amylin (peptide)
peptide: K([γGlu-C20 diacid])CNTATCATQRLADFLRHSSPNFGAIPSSTNVGPRTY-NH2
modifications: disulfide 2-7; N-terminus assumed
SMILES: CC[C@H](C)[C@H](NC(=O)[C@H](C)NC(=O)CNC(=O)[C@H](Cc1ccccc1)NC(=O)[C@H](CC(N)=O)NC(=O)[C@@H]1CCCN1C(=O)[C@H](CO)NC(=O)[C@H](CO)NC(=O)[C@H](Cc1c[nH]cn1)NC(=O)[C@H](CCCNC(=N)N)NC(=O)[C@H](CC(C)C)NC(=O)[C@H](Cc1ccccc1)NC(=O)[C@H](CC(=O)O)NC(=O)[C@H](C)NC(=O)[C@H](CC(C)C)NC(=O)[C@H](CCCNC(=N)N)NC(=O)[C@H](CCC(N)=O)NC(=O)[C@@H](NC(=O)[C@H](C)NC(=O)[C@@H]1CSSC[C@H](NC(=O)[C@@H](N)CCCCNC(=O)CC[C@H](NC(=O)CCCCCCCCCCCCCCCCCCC(=O)O)C(=O)O)C(=O)N[C@@H](CC(N)=O)C(=O)N[C@@H]([C@@H](C)O)C(=O)N[C@@H](C)C(=O)N[C@@H]([C@@H](C)O)C(=O)N1)[C@@H](C)O)C(=O)N1CCC[C@H]1C(=O)N[C@@H](CO)C(=O)N[C@@H](CO)C(=O)N[C@H](C(=O)N[C@@H](CC(N)=O)C(=O)N[C@H](C(=O)NCC(=O)N1CCC[C@H]1C(=O)N[C@@H](CCCNC(=N)N)C(=O)N[C@H](C(=O)N[C@@H](Cc1ccc(O)cc1)C(N)=O)[C@@H](C)O)C(C)C)[C@@H](C)O
With B1, the “hAmylin-R funct. EC50 (pM)” value in test [1] came to 146 pM. Moreover, in test [2], the “Ratio hCT/hAmylin funct.” value was found to be 24.9 and the “hCTR funct. EC50 (pM)” value turned out to be 3640 pM.

B2: N^ε1-[(4S)-4-carboxy-4-(19-carboxynonadecanoylamino)butanoyl]-[His14,Arg17,Pro21,Pro27,His34]-h-amylin (peptide)
peptide: K([γGlu-C20 diacid])CNTATCATQRLAHFLRHSSPNFGAIPSSTNVGHNTY-NH2
modifications: disulfide 2-7; N-terminus assumed
SMILES: CC[C@H](C)[C@H](NC(=O)[C@H](C)NC(=O)CNC(=O)[C@H](Cc1ccccc1)NC(=O)[C@H](CC(N)=O)NC(=O)[C@@H]1CCCN1C(=O)[C@H](CO)NC(=O)[C@H](CO)NC(=O)[C@H](Cc1c[nH]cn1)NC(=O)[C@H](CCCNC(=N)N)NC(=O)[C@H](CC(C)C)NC(=O)[C@H](Cc1ccccc1)NC(=O)[C@H](Cc1c[nH]cn1)NC(=O)[C@H](C)NC(=O)[C@H](CC(C)C)NC(=O)[C@H](CCCNC(=N)N)NC(=O)[C@H](CCC(N)=O)NC(=O)[C@@H](NC(=O)[C@H](C)NC(=O)[C@@H]1CSSC[C@H](NC(=O)[C@@H](N)CCCCNC(=O)CC[C@H](NC(=O)CCCCCCCCCCCCCCCCCCC(=O)O)C(=O)O)C(=O)N[C@@H](CC(N)=O)C(=O)N[C@@H]([C@@H](C)O)C(=O)N[C@@H](C)C(=O)N[C@@H]([C@@H](C)O)C(=O)N1)[C@@H](C)O)C(=O)N1CCC[C@H]1C(=O)N[C@@H](CO)C(=O)N[C@@H](CO)C(=O)N[C@H](C(=O)N[C@@H](CC(N)=O)C(=O)N[C@H](C(=O)NCC(=O)N[C@@H](Cc1c[nH]cn1)C(=O)N[C@@H](CC(N)=O)C(=O)N[C@H](C(=O)N[C@@H](Cc1ccc(O)cc1)C(N)=O)[C@@H](C)O)C(C)C)[C@@H](C)O
notes: also called compound 81
As to B2, in test [1], the “hAmylin-R funct. EC50 (pM)” value was 130 pM. In addition, in test [2], the “Ratio hCT/hAmylin funct.” value turned out to be 13.3 and the “hCTR funct. EC50 (pM)” value was 1730 pM.

B3: N^ε1-[(4S)-4-carboxy-4-(19-carboxynonadecanoylamino)butanoyl]-[Glu14,Arg17,Pro21,Pro27,Pro34,Arg35]-h-amylin (peptide)
peptide: K([γGlu-C20 diacid])CNTATCATQRLAEFLRHSSPNFGAIPSSTNVGPRTY-NH2
modifications: disulfide 2-7; N-terminus assumed
SMILES: CC[C@H](C)[C@H](NC(=O)[C@H](C)NC(=O)CNC(=O)[C@H](Cc1ccccc1)NC(=O)[C@H](CC(N)=O)NC(=O)[C@@H]1CCCN1C(=O)[C@H](CO)NC(=O)[C@H](CO)NC(=O)[C@H](Cc1c[nH]cn1)NC(=O)[C@H](CCCNC(=N)N)NC(=O)[C@H](CC(C)C)NC(=O)[C@H](Cc1ccccc1)NC(=O)[C@H](CCC(=O)O)NC(=O)[C@H](C)NC(=O)[C@H](CC(C)C)NC(=O)[C@H](CCCNC(=N)N)NC(=O)[C@H](CCC(N)=O)NC(=O)[C@@H](NC(=O)[C@H](C)NC(=O)[C@@H]1CSSC[C@H](NC(=O)[C@@H](N)CCCCNC(=O)CC[C@H](NC(=O)CCCCCCCCCCCCCCCCCCC(=O)O)C(=O)O)C(=O)N[C@@H](CC(N)=O)C(=O)N[C@@H]([C@@H](C)O)C(=O)N[C@@H](C)C(=O)N[C@@H]([C@@H](C)O)C(=O)N1)[C@@H](C)O)C(=O)N1CCC[C@H]1C(=O)N[C@@H](CO)C(=O)N[C@@H](CO)C(=O)N[C@H](C(=O)N[C@@H](CC(N)=O)C(=O)N[C@H](C(=O)NCC(=O)N1CCC[C@H]1C(=O)N[C@@H](CCCNC(=N)N)C(=O)N[C@H](C(=O)N[C@@H](Cc1ccc(O)cc1)C(N)=O)[C@@H](C)O)C(C)C)[C@@H](C)O
As to B3, the “hAmylin-R funct. EC50 (pM)” value in test [1] is 376 pM. Further, in test [2], the “Ratio hCT/hAmylin funct.” value was determined as 17 and the “hCTR funct. EC50 (pM)” value came to 6380 pM.

B4: N^ε1-[(4S)-4-carboxy-4-(19-carboxynonadecanoylamino)butanoyl]-[Glu14,Arg17,Pro21,Pro27,His35]-h-amylin (peptide)
peptide: K([γGlu-C20 diacid])CNTATCATQRLAEFLRHSSPNFGAIPSSTNVGSHTY-NH2
modifications: disulfide 2-7; N-terminus assumed
SMILES: CC[C@H](C)[C@H](NC(=O)[C@H](C)NC(=O)CNC(=O)[C@H](Cc1ccccc1)NC(=O)[C@H](CC(N)=O)NC(=O)[C@@H]1CCCN1C(=O)[C@H](CO)NC(=O)[C@H](CO)NC(=O)[C@H](Cc1c[nH]cn1)NC(=O)[C@H](CCCNC(=N)N)NC(=O)[C@H](CC(C)C)NC(=O)[C@H](Cc1ccccc1)NC(=O)[C@H](CCC(=O)O)NC(=O)[C@H](C)NC(=O)[C@H](CC(C)C)NC(=O)[C@H](CCCNC(=N)N)NC(=O)[C@H](CCC(N)=O)NC(=O)[C@@H](NC(=O)[C@H](C)NC(=O)[C@@H]1CSSC[C@H](NC(=O)[C@@H](N)CCCCNC(=O)CC[C@H](NC(=O)CCCCCCCCCCCCCCCCCCC(=O)O)C(=O)O)C(=O)N[C@@H](CC(N)=O)C(=O)N[C@@H]([C@@H](C)O)C(=O)N[C@@H](C)C(=O)N[C@@H]([C@@H](C)O)C(=O)N1)[C@@H](C)O)C(=O)N1CCC[C@H]1C(=O)N[C@@H](CO)C(=O)N[C@@H](CO)C(=O)N[C@H](C(=O)N[C@@H](CC(N)=O)C(=O)N[C@H](C(=O)NCC(=O)N[C@@H](CO)C(=O)N[C@@H](Cc1c[nH]cn1)C(=O)N[C@H](C(=O)N[C@@H](Cc1ccc(O)cc1)C(N)=O)[C@@H](C)O)C(C)C)[C@@H](C)O
As to B4, the “hAmylin-R funct. EC50 (pM)” value in test [1] amounted to 425 pM. Further, in test [2], the “Ratio hCT/hAmylin funct.” value turned out to be 13.1 and the “hCTR funct. EC50 (pM)” value turned out to be 5580 pM.

B5: N^ε1-[(4S)-4-carboxy-4-(19-carboxynonadecanoylamino)butanoyl]-[His14,Arg17,Pro21,Pro27,Arg34]-h-amylin (peptide)
peptide: K([γGlu-C20 diacid])CNTATCATQRLAHFLRHSSPNFGAIPSSTNVGRNTY-NH2
modifications: disulfide 2-7; N-terminus assumed
SMILES: CC[C@H](C)[C@H](NC(=O)[C@H](C)NC(=O)CNC(=O)[C@H](Cc1ccccc1)NC(=O)[C@H](CC(N)=O)NC(=O)[C@@H]1CCCN1C(=O)[C@H](CO)NC(=O)[C@H](CO)NC(=O)[C@H](Cc1c[nH]cn1)NC(=O)[C@H](CCCNC(=N)N)NC(=O)[C@H](CC(C)C)NC(=O)[C@H](Cc1ccccc1)NC(=O)[C@H](Cc1c[nH]cn1)NC(=O)[C@H](C)NC(=O)[C@H](CC(C)C)NC(=O)[C@H](CCCNC(=N)N)NC(=O)[C@H](CCC(N)=O)NC(=O)[C@@H](NC(=O)[C@H](C)NC(=O)[C@@H]1CSSC[C@H](NC(=O)[C@@H](N)CCCCNC(=O)CC[C@H](NC(=O)CCCCCCCCCCCCCCCCCCC(=O)O)C(=O)O)C(=O)N[C@@H](CC(N)=O)C(=O)N[C@@H]([C@@H](C)O)C(=O)N[C@@H](C)C(=O)N[C@@H]([C@@H](C)O)C(=O)N1)[C@@H](C)O)C(=O)N1CCC[C@H]1C(=O)N[C@@H](CO)C(=O)N[C@@H](CO)C(=O)N[C@H](C(=O)N[C@@H](CC(N)=O)C(=O)N[C@H](C(=O)NCC(=O)N[C@@H](CCCNC(=N)N)C(=O)N[C@@H](CC(N)=O)C(=O)N[C@H](C(=O)N[C@@H](Cc1ccc(O)cc1)C(N)=O)[C@@H](C)O)C(C)C)[C@@H](C)O
notes: also called compound 85
Turning to B5, the “hAmylin-R funct. EC50 (pM)” value in test [1] was 146 pM. Also, in test [2], the “hCTR funct. EC50 (pM)” value is 3880 pM.
With K([γGlu-C20 diacid])CNTATCATQRLAEFLRHSSPNFGAIPSSTNVGPHTY-NH2 (disulfide 2-7), in test [1], the “hAmylin-R funct. EC50 (pM)” value was 101 pM. Also, in test [2], the “Ratio hCT/hAmylin funct.” value stood at 14.4 and the “hCTR funct. EC50 (pM)” value came to 1450 pM.
